Reference: the supplement of paper PMC10065799, “High-throughput profiling of sequence recognition by tyrosine kinases and SH2 domains using bacterial peptide display” (eLife, 2023)

Columns and labels:
c-Src SH2 = assay: SH2 binding enrichment of the phosphorylated peptide, bacterial display (enrichment ratio); higher = better substrate or ligand; peptides without Tyr show the background
Grb2 SH2 = Grb2 SH2 (UniProt P62993); assay: as above
SHP2-C SH2 = assay: as above
Fer (mouse) = assay: phosphorylation enrichment, bacterial display (enrichment ratio); higher = better substrate or ligand; peptides without Tyr show the background
c-Abl (mouse) = assay: as above
MERTK = MERTK (UniProt Q12866); assay: as above
Fes = Fes (UniProt P07332); assay: as above
c-Src = assay: as above
EPHB2 = EPHB2 (UniProt P29323); assay: as above
Hck = Hck (UniProt P08631); assay: as above
EPHB1 = EPHB1 (UniProt P54762); assay: as above
Fyn = Fyn (UniProt P06241); assay: as above
Jak2 = Jak2 (UniProt O60674); assay: as above
AncSZ = assay: as above
FGFR3 = FGFR3 (UniProt P22607); assay: as above
FGFR1 = FGFR1 (UniProt P11362); assay: as above
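Wherever SH2 binding enrichment of the phosphorylated peptide, bacterial display is given: peptide library displayed on the E. coli surface as eCPX fusions, selected cells deep-sequenced, score is each peptide's frequency after selection divided by its frequency in the input.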
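Wherever phosphorylation enrichment, bacterial display is given: 11-residue human phosphosite peptides and single-mutation variants displayed on the E. coli surface, counted by deep sequencing, each peptide's frequency after selection divided by its frequency in the unselected input library; frequency after pTyr selection over input frequency; kinase dosed for 20-30% of maximal phosphorylation in three min.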

Chain of FGFR3 (P22607 whole entry, looked up): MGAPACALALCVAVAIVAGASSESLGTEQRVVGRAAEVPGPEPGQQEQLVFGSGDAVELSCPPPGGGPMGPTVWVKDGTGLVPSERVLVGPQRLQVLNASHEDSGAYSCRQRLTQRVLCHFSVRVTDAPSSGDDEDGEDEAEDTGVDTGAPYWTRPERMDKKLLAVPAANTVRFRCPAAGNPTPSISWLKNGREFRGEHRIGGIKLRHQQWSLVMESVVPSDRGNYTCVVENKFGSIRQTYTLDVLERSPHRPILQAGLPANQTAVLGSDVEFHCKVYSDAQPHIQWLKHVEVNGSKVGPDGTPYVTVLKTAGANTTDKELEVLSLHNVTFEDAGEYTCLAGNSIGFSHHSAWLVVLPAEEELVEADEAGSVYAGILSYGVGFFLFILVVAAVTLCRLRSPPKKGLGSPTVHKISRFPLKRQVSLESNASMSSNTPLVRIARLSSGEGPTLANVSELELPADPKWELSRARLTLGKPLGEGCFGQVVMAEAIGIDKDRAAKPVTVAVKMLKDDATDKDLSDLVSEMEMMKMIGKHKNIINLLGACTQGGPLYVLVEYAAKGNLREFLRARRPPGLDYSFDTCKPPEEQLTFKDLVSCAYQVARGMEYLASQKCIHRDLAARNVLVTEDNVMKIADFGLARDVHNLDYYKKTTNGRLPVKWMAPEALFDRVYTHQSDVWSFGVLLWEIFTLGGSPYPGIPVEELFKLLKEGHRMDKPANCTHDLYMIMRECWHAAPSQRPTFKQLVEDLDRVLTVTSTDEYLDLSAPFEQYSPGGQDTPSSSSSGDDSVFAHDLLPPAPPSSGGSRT
Chain of MERTK (Q12866 whole entry, looked up): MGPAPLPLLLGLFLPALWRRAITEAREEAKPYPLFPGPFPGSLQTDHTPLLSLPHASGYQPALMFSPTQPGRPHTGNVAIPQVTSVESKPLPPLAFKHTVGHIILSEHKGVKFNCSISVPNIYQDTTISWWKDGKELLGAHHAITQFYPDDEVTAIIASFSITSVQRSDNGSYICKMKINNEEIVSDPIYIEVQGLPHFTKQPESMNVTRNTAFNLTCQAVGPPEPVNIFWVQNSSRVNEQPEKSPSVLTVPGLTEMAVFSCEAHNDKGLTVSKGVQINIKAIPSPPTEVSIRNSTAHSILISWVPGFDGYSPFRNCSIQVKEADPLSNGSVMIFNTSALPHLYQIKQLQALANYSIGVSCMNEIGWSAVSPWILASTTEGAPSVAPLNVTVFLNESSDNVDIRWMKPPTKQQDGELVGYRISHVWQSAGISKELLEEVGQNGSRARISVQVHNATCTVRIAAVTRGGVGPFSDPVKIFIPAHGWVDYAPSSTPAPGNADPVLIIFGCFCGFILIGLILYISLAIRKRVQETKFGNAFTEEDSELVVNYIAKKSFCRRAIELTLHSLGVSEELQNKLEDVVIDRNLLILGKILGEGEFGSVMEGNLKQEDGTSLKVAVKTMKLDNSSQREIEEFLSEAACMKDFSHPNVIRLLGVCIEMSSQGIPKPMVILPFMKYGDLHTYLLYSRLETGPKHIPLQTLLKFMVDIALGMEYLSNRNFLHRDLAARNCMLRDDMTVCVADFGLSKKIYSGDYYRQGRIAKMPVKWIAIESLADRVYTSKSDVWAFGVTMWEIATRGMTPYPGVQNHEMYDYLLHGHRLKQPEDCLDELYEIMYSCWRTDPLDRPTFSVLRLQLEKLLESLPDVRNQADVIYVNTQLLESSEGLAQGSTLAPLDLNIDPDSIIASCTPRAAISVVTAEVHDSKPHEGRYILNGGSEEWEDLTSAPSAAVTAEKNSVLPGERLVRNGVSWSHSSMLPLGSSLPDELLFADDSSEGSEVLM
Chain of EPHB2 (P29323 whole entry, looked up): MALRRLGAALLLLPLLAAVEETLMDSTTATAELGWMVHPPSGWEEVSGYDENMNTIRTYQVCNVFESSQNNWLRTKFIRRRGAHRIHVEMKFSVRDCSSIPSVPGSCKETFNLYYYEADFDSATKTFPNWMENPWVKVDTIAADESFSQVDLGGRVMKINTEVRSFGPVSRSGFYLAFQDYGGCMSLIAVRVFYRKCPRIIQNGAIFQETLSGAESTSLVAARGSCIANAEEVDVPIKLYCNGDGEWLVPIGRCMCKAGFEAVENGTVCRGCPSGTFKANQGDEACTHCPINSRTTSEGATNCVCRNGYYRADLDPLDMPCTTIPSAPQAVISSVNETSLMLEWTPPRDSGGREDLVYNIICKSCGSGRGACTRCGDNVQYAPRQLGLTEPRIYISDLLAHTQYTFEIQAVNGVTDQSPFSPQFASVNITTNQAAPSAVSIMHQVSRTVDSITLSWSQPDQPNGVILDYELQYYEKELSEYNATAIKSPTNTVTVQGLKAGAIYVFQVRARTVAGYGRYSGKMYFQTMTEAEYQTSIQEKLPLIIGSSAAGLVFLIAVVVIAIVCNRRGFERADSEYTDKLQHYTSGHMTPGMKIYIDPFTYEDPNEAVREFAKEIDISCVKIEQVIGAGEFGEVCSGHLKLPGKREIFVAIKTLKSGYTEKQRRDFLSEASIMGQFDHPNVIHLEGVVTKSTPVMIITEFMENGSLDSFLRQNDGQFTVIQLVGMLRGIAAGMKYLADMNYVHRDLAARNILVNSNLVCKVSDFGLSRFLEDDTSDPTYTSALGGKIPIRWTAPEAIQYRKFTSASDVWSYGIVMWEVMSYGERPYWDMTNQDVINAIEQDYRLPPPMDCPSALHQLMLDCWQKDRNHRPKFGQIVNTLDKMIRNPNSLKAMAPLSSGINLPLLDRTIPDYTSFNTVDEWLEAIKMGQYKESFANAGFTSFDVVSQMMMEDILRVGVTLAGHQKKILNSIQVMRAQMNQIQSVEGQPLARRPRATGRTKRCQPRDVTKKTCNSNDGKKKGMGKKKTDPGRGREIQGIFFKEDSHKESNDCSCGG
Chain of EPHB1 (P54762 whole entry, looked up): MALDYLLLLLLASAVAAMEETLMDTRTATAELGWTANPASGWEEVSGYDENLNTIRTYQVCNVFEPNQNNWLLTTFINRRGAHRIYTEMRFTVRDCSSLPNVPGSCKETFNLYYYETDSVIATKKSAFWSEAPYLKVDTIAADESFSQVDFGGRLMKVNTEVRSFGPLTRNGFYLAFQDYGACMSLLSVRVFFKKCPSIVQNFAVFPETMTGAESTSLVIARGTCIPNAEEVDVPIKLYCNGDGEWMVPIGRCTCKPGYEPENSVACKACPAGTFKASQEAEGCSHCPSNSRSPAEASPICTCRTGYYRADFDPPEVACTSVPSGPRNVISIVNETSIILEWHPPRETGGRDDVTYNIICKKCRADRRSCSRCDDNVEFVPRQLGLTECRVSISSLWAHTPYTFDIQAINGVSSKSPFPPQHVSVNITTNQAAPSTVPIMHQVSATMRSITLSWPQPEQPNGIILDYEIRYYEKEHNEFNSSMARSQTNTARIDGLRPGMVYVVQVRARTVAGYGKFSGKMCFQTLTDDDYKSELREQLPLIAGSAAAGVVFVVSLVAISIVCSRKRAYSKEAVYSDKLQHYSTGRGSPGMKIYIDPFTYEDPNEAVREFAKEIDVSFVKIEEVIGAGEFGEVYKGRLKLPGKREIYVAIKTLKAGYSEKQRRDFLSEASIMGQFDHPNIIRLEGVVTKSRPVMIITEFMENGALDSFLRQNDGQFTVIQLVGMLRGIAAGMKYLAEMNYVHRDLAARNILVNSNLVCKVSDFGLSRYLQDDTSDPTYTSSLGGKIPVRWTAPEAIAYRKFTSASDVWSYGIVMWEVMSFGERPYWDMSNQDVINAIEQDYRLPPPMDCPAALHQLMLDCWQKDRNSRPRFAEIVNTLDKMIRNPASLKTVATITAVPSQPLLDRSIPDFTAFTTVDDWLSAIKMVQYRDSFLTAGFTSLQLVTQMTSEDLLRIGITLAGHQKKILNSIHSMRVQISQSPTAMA
Chain of Fes (P07332 whole entry, looked up): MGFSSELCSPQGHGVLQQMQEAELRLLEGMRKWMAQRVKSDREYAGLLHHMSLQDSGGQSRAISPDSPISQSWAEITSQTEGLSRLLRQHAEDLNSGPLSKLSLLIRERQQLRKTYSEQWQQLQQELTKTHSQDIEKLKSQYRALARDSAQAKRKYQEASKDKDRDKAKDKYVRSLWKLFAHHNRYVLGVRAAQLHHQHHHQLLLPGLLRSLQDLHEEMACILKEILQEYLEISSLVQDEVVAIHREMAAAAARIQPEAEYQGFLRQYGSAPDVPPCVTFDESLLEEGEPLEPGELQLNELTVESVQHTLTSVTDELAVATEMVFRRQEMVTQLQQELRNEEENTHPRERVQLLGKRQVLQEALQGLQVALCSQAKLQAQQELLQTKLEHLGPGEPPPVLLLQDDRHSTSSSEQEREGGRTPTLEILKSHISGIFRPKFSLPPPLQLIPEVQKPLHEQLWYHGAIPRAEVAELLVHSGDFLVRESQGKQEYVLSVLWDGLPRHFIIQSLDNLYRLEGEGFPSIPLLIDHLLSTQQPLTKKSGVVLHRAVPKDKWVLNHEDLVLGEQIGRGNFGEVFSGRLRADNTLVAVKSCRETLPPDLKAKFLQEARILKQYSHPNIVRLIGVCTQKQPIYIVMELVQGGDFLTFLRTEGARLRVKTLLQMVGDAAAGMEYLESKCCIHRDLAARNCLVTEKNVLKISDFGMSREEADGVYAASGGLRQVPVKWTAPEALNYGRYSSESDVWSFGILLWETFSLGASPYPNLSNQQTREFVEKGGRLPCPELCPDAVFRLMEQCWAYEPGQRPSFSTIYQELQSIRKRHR

| SH2 binding enrichment (c-Src SH2) | SH2 binding enrichment (Grb2 SH2) | SH2 binding enrichment (SHP2-C SH2) | Sequence | phosphorylation enrichment (Fer (mouse)) | phosphorylation enrichment (c-Abl (mouse)) | phosphorylation enrichment (MERTK) | phosphorylation enrichment (Fes) | phosphorylation enrichment (c-Src) | phosphorylation enrichment (EPHB2) | phosphorylation enrichment (Hck) | phosphorylation enrichment (EPHB1) | phosphorylation enrichment (Fyn) | phosphorylation enrichment (Jak2) | phosphorylation enrichment (AncSZ) | phosphorylation enrichment (FGFR3) | phosphorylation enrichment (FGFR1) |
| --- | --- | --- | --- | --- | --- | --- | --- | --- | --- | --- | --- | --- | --- | --- | --- | --- |
| 0.395 | 0.891 | 0.789 | GVFSRYFTTFD [CLCA1_Y661_YF] | 0.433 | 0.679 | 0.393 | 0.959 | 0.481 | 0.512 | 0.661 | 0.458 | 0.438 | 1.15 | 0.954 | 0.631 | 0.468 |
| 0.604 | 0.973 | 0.662 | HELFVYKSDEN [DOCK3_Y548_C550S_YF] | 0.927 | 1.11 | 0.505 | 2 | 0.616 | 0.84 | 0.66 | 0.706 | 0.734 | 2.04 | 1.87 | 1.13 | 0.94 |
| 0.456 | 0.998 | 0.672 | HESEIYGKVCF [CSRP3_Y57_C58G_YF] | 6.89 | 1.34 | 1.24 | 1.71 | 4.61 | 0.911 | 3.95 | 0.885 | 6.51 | 1.19 | 1.58 | 0.939 | 0.813 |
| 0.422 | 0.77 | 0.344 | HESEIYGKVCY [CSRP3_Y57_C58G] | 8.63 | 2.81 | 1.08 | 1.32 | 6.37 | 0.968 | 5.92 | 0.828 | 8.66 | 1.31 | 1.36 | 0.808 | 0.612 |
| 1.05 | 2.43 | 1.14 | HFVFFYSFLLK [PTEN_Y178_R173H_YF] | 1.01 | 2.85 | 1.44 | 2.93 | 1.55 | 0.844 | 0.819 | 1.32 | 1.07 | 3.35 | 2.18 | 1.14 | 0.682 |
| 1.44 | 1.1 | 1.26 | HILRVYSGVLP [PCNX4_Y999_G1000S] | 0.612 | 0.872 | 0.576 | 1.22 | 0.745 | 0.651 | 1.15 | 0.841 | 1.1 | 0.867 | 0.968 | 1.12 | 0.671 |
| 0.557 | 1.02 | 0.817 | HKDNNYVSMWF [PAPOLG_Y432] | 2.8 | 0.654 | 1.5 | 1.39 | 0.666 | 4.55 | 0.636 | 6.89 | 0.77 | 1.01 | 1.36 | 2.75 | 3.98 |
| 0.644 | 0.965 | 0.872 | HLAQRYLIWEC [SCN5A_Y694_R689H] | 0.616 | 0.929 | 0.533 | 1.65 | 0.503 | 0.944 | 0.79 | 1.03 | 0.953 | 1.02 | 1.62 | 1.26 | 0.788 |
| 1.55 | 0.711 | 0.704 | HLLRIYYDITD [MMP27_Y307_W304L] | 1.23 | 1.63 | 0.88 | 2.15 | 1.66 | 1.99 | 0.891 | 1.93 | 1.07 | 1.91 | 1.46 | 2.33 | 2.49 |
| 0.883 | 1.05 | 0.79 | HPFHVYPQPGM [BAG3_Y114] | 0.499 | 0.938 | 0.585 | 0.852 | 0.465 | 1.01 | 0.684 | 1.02 | 0.804 | 0.545 | 0.873 | 0.998 | 0.749 |
| 0.646 | 1.12 | 0.591 | HQEPVCSVAFS [TBL1X_Y509_Y509C] | 0.874 | 1.09 | 0.791 | 2.01 | 0.794 | 0.654 | 0.69 | 0.804 | 0.658 | 1.17 | 1.07 | 1.1 | 1.12 |
| 0.423 | 1.04 | 0.564 | HRGCLYLAIEY [TEK_Y899_Y897C] | 0.868 | 1.49 | 0.691 | 2.3 | 0.936 | 1.17 | 1.05 | 1.01 | 0.695 | 1.88 | 1.86 | 1.31 | 0.827 |
| 0.531 | 0.639 | 0.6 | HSQEDYFECFQ [ZIM2_Y411] | 0.614 | 0.902 | 0.624 | 1.82 | 0.79 | 1.2 | 0.623 | 2.03 | 0.669 | 1.25 | 3.08 | 8.51 | 10.2 |

The remaining lines, values behind:

| Sequence | SH2 binding enrichment (c-Src SH2) | SH2 binding enrichment (Grb2 SH2) | SH2 binding enrichment (SHP2-C SH2) | phosphorylation enrichment (Fer (mouse)) | phosphorylation enrichment (c-Abl (mouse)) | phosphorylation enrichment (MERTK) | phosphorylation enrichment (Fes) | phosphorylation enrichment (c-Src) | phosphorylation enrichment (EPHB2) | phosphorylation enrichment (Hck) | phosphorylation enrichment (EPHB1) | phosphorylation enrichment (Fyn) | phosphorylation enrichment (Jak2) | phosphorylation enrichment (AncSZ) | phosphorylation enrichment (FGFR3) | phosphorylation enrichment (FGFR1) |
| --- | --- | --- | --- | --- | --- | --- | --- | --- | --- | --- | --- | --- | --- | --- | --- | --- |
| GRRNTCFASIA [ACADM_Y352_Y352C_YF] | 0.529 | 0.842 | 0.565 | 0.424 | 0.556 | 0.413 | 0.691 | 0.391 | 0.348 | 0.365 | 0.383 | 0.401 | 0.711 | 0.665 | 0.405 | 0.377 |
| GRVYVYRLSEQ [ITGAE_Y551] | 1.16 | 1.41 | 11.3 | 0.508 | 0.683 | 0.4 | 1.04 | 0.725 | 0.471 | 0.462 | 0.539 | 0.568 | 0.83 | 0.858 | 0.661 | 0.411 |
| GSPPPYRRRKR [MBD1_Y403] | 0.458 | 0.597 | 0.41 | 0.608 | 0.55 | 0.593 | 0.605 | 0.638 | 0.625 | 0.537 | 0.451 | 0.535 | 0.519 | 0.665 | 0.601 | 0.464 |
| HAKKNYGNSSV [HDX_Y197] | 0.414 | 1.04 | 0.69 | 0.407 | 0.508 | 0.355 | 0.409 | 0.355 | 0.162 | 0.387 | 0.316 | 0.262 | 0.396 | 0.398 | 0.281 | 0.406 |
| HDRNTYEKYLG [TF_Y666] | 1.21 | 0.935 | 0.874 | 0.668 | 0.731 | 0.765 | 0.796 | 1.82 | 0.759 | 1.4 | 0.781 | 1.41 | 0.453 | 2.4 | 0.909 | 0.676 |
| HEKKAYAFCGT [RPS6KA3_Y226_S227A] | 0.721 | 1.04 | 0.888 | 0.46 | 0.649 | 0.458 | 0.887 | 0.498 | 0.46 | 0.63 | 0.561 | 0.54 | 0.516 | 0.654 | 0.581 | 0.751 |
| HELFVYKCDEN [DOCK3_Y548_YF] | 0.561 | 1.14 | 0.698 | 1.15 | 1.5 | 0.76 | 2.21 | 1.18 | 1.13 | 1.19 | 1.13 | 1.54 | 1.95 | 2.31 | 1.53 | 0.995 |
| HHIDFYKETTN [FGFR1_Y654_K656E_YF] | 0.761 | 1.08 | 0.933 | 0.889 | 0.575 | 0.556 | 2.36 | 0.541 | 2.44 | 1.64 | 1.5 | 1.27 | 0.938 | 1.07 | 1.14 | 1.02 |
| HHTDEYEFDEL [TGM1_Y134_YF] | 0.43 | 1.45 | 1.73 | 0.622 | 0.96 | 0.445 | 1.3 | 0.745 | 0.936 | 0.697 | 0.909 | 0.725 | 1.09 | 1.38 | 0.852 | 1.07 |
| HKDNNYISMWF [PAPOLG_Y432_V433I] | 0.346 | 0.726 | 0.51 | 1.14 | 0.975 | 1.33 | 2.53 | 0.663 | 2.15 | 0.866 | 2.88 | 0.934 | 1.46 | 1.93 | 2.46 | 3.2 |
| HLTNQFMQRVA [PABPC4_Y382_Y382F] | 0.591 | 1.16 | 0.733 | 0.527 | 0.898 | 0.673 | 0.809 | 0.541 | 0.35 | 0.722 | 0.621 | 0.437 | 0.697 | 0.791 | 0.631 | 0.576 |
| HNLDFYKMTTN [FGFR3_Y648_K650M_YF] | 0.474 | 0.62 | 0.981 | 0.728 | 0.954 | 0.783 | 1.74 | 0.364 | 1.1 | 1.67 | 0.954 | 1.66 | 1.25 | 2.03 | 1.88 | 1.45 |
| HNLFSYPTKHE [MYO3A_Y1396_YF] | 0.597 | 0.576 | 0.523 | 0.624 | 0.65 | 0.868 | 0.989 | 0.531 | 0.624 | 0.874 | 0.65 | 0.631 | 1.01 | 0.773 | 0.738 | 0.74 |
| HNQDDYSFPSR [LDLR_Y845_G844D_YF] | 0.678 | 0.723 | 0.8 | 0.573 | 0.545 | 0.553 | 0.77 | 0.633 | 2.14 | 0.586 | 1.3 | 0.737 | 0.536 | 5.49 | 0.75 | 0.539 |
| HNVAIYEGYAL [ACTC1_Y168_P166A] | 2.31 | 0.716 | 0.838 | 19.7 | 3.44 | 6.65 | 2.5 | 17.1 | 22.6 | 12.8 | 15.8 | 15.4 | 2.17 | 2.26 | 0.969 | 0.878 |
| HNVPICEGFAL [ACTC1_Y168_Y168C_YF] | 0.555 | 0.871 | 1.16 | 0.59 | 1.06 | 0.673 | 1.29 | 0.621 | 0.704 | 0.708 | 0.729 | 0.75 | 1.15 | 1.1 | 0.947 | 0.849 |
| HPWPRYTTRAP [FNDC1_Y1281_Q1280R] | 0.434 | 0.684 | 0.643 | 0.449 | 0.646 | 0.605 | 0.907 | 0.654 | 0.713 | 0.849 | 0.509 | 0.796 | 0.518 | 0.802 | 0.619 | 0.515 |
| HRGHLYLAIEF [TEK_Y899_Y897H_YF] | 0.571 | 0.645 | 0.722 | 1.38 | 9.68 | 1.64 | 8.12 | 2.63 | 1.67 | 1.5 | 1.78 | 1.49 | 6.33 | 3.67 | 1.79 | 1.41 |
| HSDFQYSQRSQ [PKP2_Y168_YF] | 0.581 | 0.99 | 0.832 | 0.733 | 0.942 | 0.602 | 1.02 | 0.747 | 0.782 | 0.718 | 0.752 | 0.844 | 0.952 | 0.997 | 0.608 | 0.931 |
| HSREDYFECFQ [ZIM2_Y411_Q408R] | 0.557 | 0.786 | 0.766 | 0.811 | 1.28 | 0.721 | 1.64 | 0.91 | 1.19 | 0.907 | 1.83 | 0.598 | 1.58 | 2.12 | 6.79 | 9.83 |
